Blank lines part the entries; values can stand above or below the compound they belong to. Where a SMILES comes first, the peptide text is derived from it. Where no end group is shown, it is not given here. The star is where a group is joined. DTPA = O=C(O)CN(CCN(CC(=O)O)CC(=O)O)CCN(CC(=O)O)CC(=O)*
Experiments:
[1] = target: T1, native 7E11-C5 antigen in LNCaP lysates (Homo sapiens, UniProt Q04609); assay: Sandwich assay: capture of antigen from LNCaP cell lysate; format: binding; details: detection with biotinylated 7E11-C5, FIG. 6
T1 construct: endogenous in cells; host or cells: LNCaP cell lysate
Method: A sandwich assay using the LNCaP antigen was performed. The wells of a microtiter plate were coated with either monoclonal antibody 7E11-C5, the clone 14 7E11-C5 abtide, or, as a negative control, BSA. Coating and washing was as for-the assay described in Section 6.1.2.2. One hundred microliters of a lysate of LNCaP cells was added to the wells. The LNCaP lysate was prepared as described in PCT publication WO 94/18318, dated Aug. 18, 1994. Following capture of the lysate on the plate, 100 μL of a 5 μg/mL solution of biotinylated 7E11-CS monoclonal antibody was added to each well. Following incubation and washing as in Section 6.1.2.2, a 1:2000 dilution of Extravidin-Alkaline Phosphatase (4,250 units/mL) (Sigma, St. Louis, Mo.) in PBS was added to each well and incubated for 1 hour at room temperature. Following incubation, the wells were washed four times with 1% BSA in PBS and then twice in PBS. One hundred microliters of a 1 mg/mL solution of p-nitrophenyl phosphate in diethanol amine (DEA) buffer (both from Kirkegaard & Perry Laboratories, Gaithersburg, Md.) was then added and, after incubation at room temperature for 15-30 minutes, the absorbance of the solutions in the wells was read at 405 nm.
This was a surprising discovery and would not have been predicted by those skilled in the art. […]

[2] = system: biotinylated 7E11-9.5 mimetope peptide; assay: Dot blot: spotted 7E11-C5 abtides probed with biotinylated mimetope peptide; format: binding; details: 1 μL of 1 mg/mL abtide spotted on nitrocellulose; 0.1 mg/mL mimetope; FIG. 4
Method: In some cases, these abtides were used in a dot blot experiment. In those cases, 1 μL of a 1 mg/mL solution of the 38-residue abtides was spotted onto nitrocellulose (0.2 μm or 0.45 μm, Schleicher & Schuell, Keene, NH) strips or circles. After drying (about 1/2 hour), the nitrocellulose was blocked for 1 hour in a solution of 1% BSA in PBS. The nitrocellulose was then allowed to incubate in approximately 5 mL of a solution of 0.1 mg/mL of a biotinylated 7E11-9.5 mimetope peptide (biotin-LYANPGMYSRLHSPA). This mimetope peptide was one of those described in Section 6.1.1 above that were synthesized based upon the nine peptides that were identified in the screening of Section 6.1.1 above. After an hour, the nitrocellulose was washed approximately 5 times with a solution of 1% BSA in PBS. A 1:2000 dilution of Extravidin-Alkaline Phosphatase (4,250 units/mL) (Sigma, St. Louis, Mo.) in PBS was then added and allowed to incubate for 1 hour, after which the nitrocellulose was again washed extensively. Finally, a solution of 5-bromo-4-chloro-3-indolyl phosphate (0.15 mg/mL) and nitro blue tetrazolium (0.3 mg/mL) (Sigma, St Louis, Mo.) (BCIP/NBT) was added as an enzyme substrate. Color was allowed to develop […].
In FIG. 4, the 7E11-C5 abtides known as clone 14, clone 17, clone 15, clone 16, and clone 13 were tested for their ability to bind the biotinylated 7E11-9.5 mimetope peptide. Also tested, as a positive control, was the monoclonal antibody 7E11-C5. 7E11-C5 was spotted onto the region marked 351 in FIG. 4.

[3] = system: monoclonal antibody 7E11-C5; assay: ELISA: biotinylated monoclonal antibody 7E11-C5 binding to immobilized mimetope peptide 7E11-9.5; parameters: species or system murine; details: wells coated with 5 μg/mL mimetope; antibody serially diluted from 29 μg/mL; FIG. 2
Method: First the mimetope peptide 7 μl-9.5 was tested for its ability to bind to the monoclonal antibody 7E11-C5. Ninety-six well plates (Immunlon 4, Dynatech, Alexandria, Va.) were coated with 50 μL of a 5 μg/mL solution of the mimetope peptide 7 μl-9.5 and incubated overnight at room temperature. Following incubation, the wells were washed 4 times with 1% BSA in PBS. Biotinylated monoclonal antibody 7E11-C5 was serially diluted with PBS beginning with a concentration of 29 μg/mL and various amounts of the monoclonal antibody were added to the wells that had been coated with the mimetope peptide. After incubating for 1 hour at room temperature, the wells were washed four times with 1% BSA in PBS and 2 times with PBS. Then, 100 AL of a 1:2000 dilution of Extravidin-Alkaline Phosphatase (4,250 units/mL) (Sigma, St. Louis, Mo.) in PBS was added to each well. After an hour, the plate was again washed 4 times with PBS and 100 μL of a 1 mg/mL solution of the enzyme substrate p-nitrophenyl phosphate was added to each well. Color was allowed to develop for 15 minutes to 1 hour and absorbance was read at 405 nm.

[4] = system: human prostate carcinoma LNCaP xenograft tumors; assay: in vivo; parameters: species or system SCID mice; details: mouse, iv
Method: (§1) Male SCID mice (C.B-17/Icr Tac—SCID mice) were purchased from Fox Chase (Philadelphia, Pa.) or. Taconic Farms (Germantown, N.Y.), were housed in sterilized cages with filter bonnets, and were given autoclaved laboratory rodent chow (Purina, St. Louis, Mo.), and filtered tap water ad libitum.
(§2) 1×10^7 cells of the human prostate tumor line LNCaP (Horoszewicz et al., 1987, Anticancer Res. 7:927-936) were injected subcutaneously (s.c.) into the left rear flank of the mice. The cells were growing in exponential phase before harvesting and had been resuspended in 0.2 mL of sterile saline. Tumors were grown in the mice for 2-3 months before abtides were injected into the mice.
(§3) For biodistribution studies, abtides were modified at their amino termini with the chelator diethylene-triamine-pentaacetic acid anhydride (DTPA-A) (Sigma, St. Louis, Mo.). Approximately 2 mg of each abtide was initially dissolved in an appropriate volume of 0.1% acetic acid and then 1 mL of 0.1 M sodium bicarbonate, pH 8.0, was added. Two mg of DTPA-A was suspended in 100 AL of dimethylsulfoxide (DMSO), and 10 μL of the abtide solution added to this DTPA-A suspension. […]
(§4) In one experiment, abtide clone 14-DPTA-^111In (see Table 2) was injected intravenously (i.v.) into two groups of mice bearing measurable LNCaP xenografts. […] Thus, the total injected dose of radioactivity was about 120-140×10^6 cpm.
(§5) The first group of mice was sacrificed 2 hours after injection of the abtide and tissues were dissected for analysis. […] Dissected tissues were weighed and the amount of ^111In in them was determined by gamma counting. The cpm per gram of each tissue was calculated by dividing the cpm of ^111In found in the tissue by the weight in grams of the tissue. […]
(§6) In another experiment, abtide clone 17-DPTA-^111In (see Table 2) was injected intravenously into four SCID mice bearing measurable LNCaP xenografts. […] Thus, the total injected dose of radioactivity was about 100-110×10^6 cpm. […]

in vivo = assay: in vivo; parameters: species or system SCID mice; details: male, C.B-17/Icr Tac-SCID, mouse, iv, 2 ug, total radioactivity
Method: as §1, §2, §3, §4, §5, §6

T1 sequence (Q04609 whole entry): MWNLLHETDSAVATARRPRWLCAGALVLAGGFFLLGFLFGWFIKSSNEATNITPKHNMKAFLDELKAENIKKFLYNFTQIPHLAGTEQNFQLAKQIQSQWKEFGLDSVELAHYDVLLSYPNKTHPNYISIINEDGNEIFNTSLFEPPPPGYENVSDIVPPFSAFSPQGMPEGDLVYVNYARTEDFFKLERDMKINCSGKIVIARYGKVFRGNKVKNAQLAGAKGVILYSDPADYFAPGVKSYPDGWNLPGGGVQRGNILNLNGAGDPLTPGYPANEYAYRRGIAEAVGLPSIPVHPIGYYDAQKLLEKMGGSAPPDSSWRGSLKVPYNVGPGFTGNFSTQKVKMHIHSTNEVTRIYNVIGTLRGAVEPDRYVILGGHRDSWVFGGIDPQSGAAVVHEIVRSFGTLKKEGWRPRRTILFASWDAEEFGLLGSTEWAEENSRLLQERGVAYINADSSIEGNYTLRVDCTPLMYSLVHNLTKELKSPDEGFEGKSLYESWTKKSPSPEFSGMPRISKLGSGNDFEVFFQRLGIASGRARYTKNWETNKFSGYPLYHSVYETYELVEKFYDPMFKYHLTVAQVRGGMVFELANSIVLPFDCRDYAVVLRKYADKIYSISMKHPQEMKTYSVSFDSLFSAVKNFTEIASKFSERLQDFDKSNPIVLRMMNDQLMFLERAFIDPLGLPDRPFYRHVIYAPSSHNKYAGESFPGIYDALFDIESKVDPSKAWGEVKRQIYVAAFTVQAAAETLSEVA

binding of biotinylated 7E11-9.5 mimetope peptide in dot blot [2]: bound the mimetope
Compound: GIINANDPLPFWFMSPYTPGPAPIDINASRALVSNESG [clone 14]
recognition (capture) of native 7E11-C5 antigen [1]: capable of recognizing the native 7E11-C5 antigen in LNCaP lysates

Compound: LYANPGMYSRLHSPA (not fully specified (N-terminus, C-terminus)) [7E11-9.5]
binding of monoclonal antibody 7E11-C5 to mimetope (absorbance at 405 nm) [3]: binds to the synthesized mimetope 7E11-9.5 in a concentration dependent manner

Compound: CC[C@H](C)[C@H](NC(=O)CNC(=O)CN(CCN(CCN(CC(=O)O)CC(=O)O)CC(=O)O)CC(=O)O)C(=O)N[C@H](C(=O)N[C@@H](CC(N)=O)C(=O)N[C@@H](C)C(=O)N[C@@H](CC(N)=O)C(=O)N[C@@H](CC(=O)O)C(=O)N1CCC[C@H]1C(=O)N[C@@H](CC(C)C)C(=O)N1CCC[C@H]1C(=O)N[C@@H](Cc1ccccc1)C(=O)N[C@@H](Cc1c[nH]c2ccccc12)C(=O)N[C@@H](Cc1ccccc1)C(=O)N[C@@H](CCSC)C(=O)N[C@@H](CO)C(=O)N1CCC[C@H]1C(=O)N[C@@H](Cc1ccc(O)cc1)C(=O)N[C@H](C(=O)N1CCC[C@H]1C(=O)NCC(=O)N1CCC[C@H]1C(=O)N[C@@H](C)C(=O)N1CCC[C@H]1C(=O)N[C@H](C(=O)N[C@@H](CC(=O)O)C(=O)N[C@H](C(=O)N[C@@H](CC(N)=O)C(=O)N[C@@H](C)C(=O)N[C@@H](CO)C(=O)N[C@@H](CCCNC(=N)N)C(=O)N[C@@H](C)C(=O)N[C@@H](CC(C)C)C(=O)N[C@H](C(=O)N[C@@H](CO)C(=O)N[C@@H](CC(N)=O)C(=O)N[C@@H](CCC(=O)O)C(=O)N[C@@H](CO)C(=O)NCC(N)=O)C(C)C)[C@@H](C)CC)[C@@H](C)CC)[C@@H](C)O)[C@@H](C)CC [abtide clone 14-DPTA-^111In, metal not drawn] ({DTPA}-GIINANDPLPFWFMSPYTPGPAPIDINASRALVSNESG-NH2; N-terminus and C-terminus assumed)
localization to LNCaP xenograft tumors [4]: specific localization to the tumor | tissue to tissue ratio at 2 h (in vivo): 1.85
